Values joined by “and” are separate entries in the source; they are usually repeats but may differ in a detail not shown here. Identical values can stand only once.
B1: H1H9336P (antibody, V domains shown)
VH: EVQLVESGGGLVQPGRSLRLSCAASGFTFDDFAMHWVRQAPGKGLEWVSGISWTGGNMDYANSVKGRFTISREDAKNSLYLQMNSLRAADTALYYCVKDIRGIVATGGAFDIWGRGTMVTVSS
VL: DIQMTQSPSSLSASVGDRVTISCRASQTISTYLNWFQQKPGKAPKLLIYVVSSLQSGVPSRFSGSGSGTDFTLTISSLQPEDFATYYCQQSYSTPFTFGPGTKVDIK
notes: human IgG1 Fc (H1H prefix)
B2: H1H9345P2 (antibody, V domains shown)
VH: EVQLVESGGGLVQPGGSLRLSCAASGFTISTNYMNWVRQAPGKGLEWVAVIYSSGSTYYIDSVKGRFTISRLTSKNTVYLQMSSLNSEDTAVYYCARGIRGFDIWGQGTMVTVSS
VL: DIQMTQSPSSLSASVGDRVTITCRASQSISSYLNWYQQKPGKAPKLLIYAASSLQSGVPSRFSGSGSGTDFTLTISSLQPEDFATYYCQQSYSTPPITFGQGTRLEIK
notes: human IgG1 Fc (H1H prefix)
B3: H1H9354P2 (antibody, V domains shown)
VH: EVQLVESGGGLVQPGGSLRLSCEASGFTVGVNHMNWVRQAPGKGLEWVSVIFSSGRTFYGDYVKGRLTIFRQTSQNTVYLQMNSLRSEDTAIYYCARGIGGLDIWGRGTMVTVSS
VL: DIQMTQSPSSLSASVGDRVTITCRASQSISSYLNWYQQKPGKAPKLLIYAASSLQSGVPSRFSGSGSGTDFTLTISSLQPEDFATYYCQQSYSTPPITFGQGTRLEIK
notes: human IgG1 Fc (H1H prefix)
B4: H1H9382P2 (antibody, V domains shown)
VH: EVQLVESGGGLVQPGGSLRLSCAASGFTVGTNFMNWVRQAPGKGLEWVSAIYSGGTANYADSVKGRFTISRDTSRNTLYLQMNSLRTEDTAVYYCARGGGMDVWGQGTTVTVSS
VL: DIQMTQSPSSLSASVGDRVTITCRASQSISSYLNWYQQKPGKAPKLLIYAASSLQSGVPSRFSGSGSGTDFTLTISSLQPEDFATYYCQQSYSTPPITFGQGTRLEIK
notes: human IgG1 Fc (H1H prefix)
B5: H1H9387P2 (antibody, V domains shown)
VH: QVQLVQSGAEVKKPGSSVKVSCKASGGTFNTYVLSWVRQAPGQGLEWMGEIIPILGAANYAQNFQGRVTFTTDESTNTAYMDLSSLRSEDTAVYYCARDRTSGGFDPWGQGTLVTVSS
VL: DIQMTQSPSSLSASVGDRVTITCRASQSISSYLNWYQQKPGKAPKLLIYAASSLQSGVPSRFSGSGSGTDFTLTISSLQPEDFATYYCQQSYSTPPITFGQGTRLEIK
notes: human IgG1 Fc (H1H prefix)
B6: H1H9396P2 (antibody, V domains shown)
VH: QVQLVQSGAEVEKPGASVKVSCKASGYIFTHYGISWVRQAPGQGLEWVGWISPYNGYTDYAQKLQGRVTLTTDTSTTTAYMELRNLRSDDTAMYYCSRGRGPYWSFDLWGRGTLVTVSS
VL: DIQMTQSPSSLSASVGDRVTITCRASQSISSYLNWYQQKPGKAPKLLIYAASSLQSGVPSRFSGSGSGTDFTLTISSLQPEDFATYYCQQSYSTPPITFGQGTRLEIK
notes: human IgG1 Fc (H1H prefix)

Biological target: T1, recombinant cynomolgus monkey PD-L1 expressed with a C-terminal mouse IgG2a Fc tag (cynomolgus monkey)
T1 construct: also called MfPD-L1-mFc; monkey PD-L1-mFc
Assay: SPR (Biacore), mAb captured, 37C

T1 sequence (chain, as listed by the source limits assumed): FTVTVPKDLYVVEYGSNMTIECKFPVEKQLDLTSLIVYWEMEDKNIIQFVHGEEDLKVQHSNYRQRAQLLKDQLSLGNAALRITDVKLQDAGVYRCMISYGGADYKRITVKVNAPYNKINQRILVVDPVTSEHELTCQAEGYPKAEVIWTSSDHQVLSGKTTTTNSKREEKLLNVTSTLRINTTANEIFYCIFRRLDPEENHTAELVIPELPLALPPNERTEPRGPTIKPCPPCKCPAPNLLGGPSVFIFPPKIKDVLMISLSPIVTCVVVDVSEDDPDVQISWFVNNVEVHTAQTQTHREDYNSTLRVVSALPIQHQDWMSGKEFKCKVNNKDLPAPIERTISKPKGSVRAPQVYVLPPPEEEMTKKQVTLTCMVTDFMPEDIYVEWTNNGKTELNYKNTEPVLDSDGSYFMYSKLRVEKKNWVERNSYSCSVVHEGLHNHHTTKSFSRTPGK

Q: Which Kd does the source give for B1 here?
A: Its Kd is 0.0247 nM.

Q: What about the koff of the same binder?
A: The koff was 4.6e-05 s⁻¹.

Q: What about the kon of the same binder?
A: Its kon is 1.86e+06 M⁻¹ s⁻¹.

Q: What about the t1/2 of the same binder?
A: Its t1/2 is 251 min.

Q: With B2 as the binder, how does the Kd read?
A: The Kd was 0.339 nM.

Q: What about the koff of the same binder?
A: The koff was 0.000292 s⁻¹.

Q: What about the kon of the same binder?
A: Its kon is 861000 M⁻¹ s⁻¹.

Q: What about the t1/2 of the same binder?
A: Its t1/2 is 40 min.

Q: What does the source list for B3?
A: Kd: 0.746 nM; koff: 0.000203 s⁻¹; kon: 272000 M⁻¹ s⁻¹; t1/2: 57 min

Q: B4 was tested. Which Kd did it give?
A: Its Kd is 0.825 nM.

Q: And the koff?
A: Its koff is 0.000235 s⁻¹.

Q: And the kon?
A: Its kon is 284000 M⁻¹ s⁻¹.

Q: What about the t1/2 of the same binder?
A: Its t1/2 is 49 min.

Q: B5 was tested. Which Kd did it give?
A: Its Kd is 0.139 nM and 0.161 nM.

Q: What about the koff of the same binder?
A: Its koff is 0.000474 s⁻¹ and 0.000465 s⁻¹.

Q: And the kon?
A: The kon was 3.41e+06 M⁻¹ s⁻¹ and 2.9e+06 M⁻¹ s⁻¹.

Q: And the t1/2?
A: The t1/2 was 24 min and 25 min.

Q: With B6 as the binder, how does the Kd read?
A: The Kd was 0.319 nM.

Q: What about the koff of the same binder?
A: The koff was 0.000502 s⁻¹.

Q: And the kon?
A: The kon was 1.57e+06 M⁻¹ s⁻¹.

Q: And the t1/2?
A: Its t1/2 is 23 min.

Biological target: T2, full length human PD-L1 (amino acids 1 to 290 of NP_054862.1) on transfected cells (human, UniProt Q9NZQ7 19-290)
Assay: cell-based or functional assay

T2 sequence (Q9NZQ7 19-290 limits assumed): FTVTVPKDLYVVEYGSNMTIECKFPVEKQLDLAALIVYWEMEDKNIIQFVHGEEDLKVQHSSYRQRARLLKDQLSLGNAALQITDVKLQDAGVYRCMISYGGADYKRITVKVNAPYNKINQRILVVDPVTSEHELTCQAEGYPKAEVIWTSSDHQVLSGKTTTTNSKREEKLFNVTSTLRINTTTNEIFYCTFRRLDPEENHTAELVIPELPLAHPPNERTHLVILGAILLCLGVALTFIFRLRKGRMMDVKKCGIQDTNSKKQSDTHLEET

Q: For B1, which “Concentration [M] of Antibody at 125% activation” value is on record?
A: Its value is 9.81e-11 M.

Q: And the “Emax mean [%] @ 100 nM” value?
A: Its value is 163%.

Q: B2 was tested. Which “Emax mean [%] @ 100 nM” value did it give?
A: Its value is 89.2%.

Q: How did the “Emax mean [%] @ 100 nM” value turn out when B3 was run?
A: Its value is 89.9%.

Q: Which “Emax mean [%] @ 100 nM” value does the source give for B4 here?
A: Its value is 86.5%.

Q: With B5 as the binder, how does the “Concentration [M] of Antibody at 125% activation” value read?
A: The value was 1.86e-11 M.

Q: And the “Emax mean [%] @ 100 nM” value?
A: Its value is 141%.

Q: For B6, which “Emax mean [%] @ 100 nM” value is on record?
A: Its value is 103%.

Biological target: T3, recombinant human PD-L1 (amino acids 19-239 of NP_054862.1) expressed with a C-terminal mouse IgG2a Fc tag (human)
T3 construct: called dimeric; also called hPD-L1-mFc
Assay: competition ELISA: 0.5 nM hPD-L1-mFc binding to coated hPD-1-hFc
Procedure: (§1) The ability of monoclonal anti-PD-L1 antibodies to block human PD-L1 from binding to its binding partners, the human PD-1 and the human B7-1 receptors, was measured using two competition sandwich ELISA formats.
(§2) A dimeric human PD-1 protein comprised of a portion of the extracellular domain (amino acids 25-170 of accession number NP_005009.2 with a C93S change) that was expressed with a C-terminal hFc tag (hPD-1-hFc; SEQ ID: 350) and a dimeric human B7-1 protein comprised of a portion of the extracellular domain expressed with C-terminal hFc tag and hexahistidine tags (hB7-1-hFc-6His; R&D Systems, #140-B1) were separately coated at 2 μg/mL on a 96-well microtiter plate in a PBS buffer overnight at 4° C. […] These antibody-protein complexes were then incubated for 1 hour at room temperature (RT). […] The complexes were allowed to bind to the coated plates for 1 hour at RT. […] Samples were developed with a TMB solution (BD Biosciences, #51-2606KC and #51-2607KC) to produce a colorimetric reaction and neutralized with 1M sulfuric acid before measuring absorbance at 450 nm on a Victor X5 plate reader. Data analysis used a sigmoidal dose-response model within Prism™ software.

T3 sequence (chain, as listed by the source limits assumed): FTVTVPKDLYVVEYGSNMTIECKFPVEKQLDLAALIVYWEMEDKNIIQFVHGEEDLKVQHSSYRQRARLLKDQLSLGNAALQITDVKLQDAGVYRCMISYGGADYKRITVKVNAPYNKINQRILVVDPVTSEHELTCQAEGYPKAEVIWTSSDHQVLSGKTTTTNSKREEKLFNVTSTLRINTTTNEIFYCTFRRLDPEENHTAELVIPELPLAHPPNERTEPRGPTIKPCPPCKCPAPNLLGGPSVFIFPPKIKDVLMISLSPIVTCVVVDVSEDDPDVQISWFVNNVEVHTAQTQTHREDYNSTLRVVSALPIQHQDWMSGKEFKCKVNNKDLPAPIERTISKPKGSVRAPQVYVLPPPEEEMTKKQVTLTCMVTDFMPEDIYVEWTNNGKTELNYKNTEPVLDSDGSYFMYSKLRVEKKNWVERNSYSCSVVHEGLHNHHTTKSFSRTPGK

Q: How did the “% maximum blocking” value turn out when B1 was run?
A: Its value is 100%.

Q: What about the IC50 of the same binder?
A: The IC50 was less than 0.25 nM.

Q: B2 was tested. Which “% maximum blocking” value did it give?
A: The value was 26%.

Q: And the IC50?
A: Its IC50 is less than 0.25 nM.

Q: Which results are given for B3?
A: % maximum blocking: 34%; IC50: 0.53 nM

Q: For B4, which “% maximum blocking” value is on record?
A: The value was 39%.

Q: What about the IC50 of the same binder?
A: The IC50 was less than 0.25 nM.

Q: What does the source list for B5?
A: % maximum blocking: 100%; IC50: < 0.25 nM

Q: B6 was tested. Which “% maximum blocking” value did it give?
A: The value was 59%.

Q: What about the IC50 of the same binder?
A: Its IC50 is less than 0.25 nM.

Biological target: T2, full length human PD-L1 (amino acids 1 …)
Assay: FACS, 100 nM antibody
Procedure: (§3) The binding of anti-PD-L1 antibodies to a human embryonic kidney cell line (HEK293; ATCC, #CRL-1573) stably transfected with full length human PD-L1 (amino acids 1 to 290 of accession number NP_054862.1) (HEK293/hPD-L1) was determined by FACS.
(§4) For the assay, adherent cells were detached using enzyme-free dissociation buffer and blocked with complete medium. Cells were centrifuged and resuspended at a concentration of 2.8×10\hat{ }6 cells/mL in cold PBS containing 2% FBS. […] Cells were washed with D-PBS containing 2% FBS to remove unbound secondary detection reagents and fluorescence measurements were acquired using a HyperCyte (IntelliCyt, Inc.) flow cytometer. Data was analyzed using HyperCyte software.

Q: How did the “Ratio of HEK293/hPD-L1 to HEK293 parental cells” value (“Ratio of HEK293/hPD-L1” below) turn out when B1 was run?
A: The value was 168.

Q: With B2 as the binder, how does the “Ratio of HEK293/hPD-L1” value read?
A: The value was 121.

Q: B3 was tested. Which “Ratio of HEK293/hPD-L1” value did it give?
A: The value was 125.

Q: B4 was tested. Which “Ratio of HEK293/hPD-L1” value did it give?
A: The value was 140.

Q: For B5, which “Ratio of HEK293/hPD-L1” value is on record?
A: Its value is 263.

Q: Which “Ratio of HEK293/hPD-L1” value does the source give for B6 here?
A: Its value is 97.

Biological target: T3, recombinant human PD-L1 (amino acids …)
Assay: competition ELISA: 8 nM hPD-L1-mFc binding to coated hB7-1-hFc-6His
Procedure: as §1, §2

Q: With B1 as the binder, how does the “% maximum blocking” value read?
A: Its value is 99%.

Q: What about the IC50 of the same binder?
A: Its IC50 is 4.4 nM.

Q: Which “% maximum blocking” value does the source give for B2 here?
A: The value was -34%.

Q: For B3, which “% maximum blocking” value is on record?
A: The value was -13%.

Q: Which “% maximum blocking” value does the source give for B4 here?
A: The value was -30%.

Q: For B5, which “% maximum blocking” value is on record?
A: The value was 100%.

Q: And the IC50?
A: The IC50 was less than 4 nM.

Q: B6 was tested. Which “% maximum blocking” value did it give?
A: Its value is 8%.

Biological target: T2, full length human PD-L1 (amino acids 1 …)
Assay: FACS, 100 nM antibody, HEK293/hPD-L1 cells
Procedure: as §3, §4

Q: Which MFI does the source give for B1 here?
A: The MFI was 379000 MFI.

Q: With B2 as the binder, how does the MFI read?
A: The MFI was 228000 MFI.

Q: B3 was tested. Which MFI did it give?
A: The MFI was 276000 MFI.

Q: How did the MFI turn out when B4 was run?
A: The MFI was 206000 MFI.

Q: How did the MFI turn out when B5 was run?
A: The MFI was 324000 MFI.

Q: B6 was tested. Which MFI did it give?
A: Its MFI is 228000 MFI.

Biological target: T4, recombinant human PD-L1 (amino acids 19-239 of NP_054862.1) expressed with a C-terminal human IgG1 Fc tag (human)
T4 construct: also called hPD-L1-hFc
Assay: SPR (Biacore 3000): 100 nM hPD-L1-hFc + 500 nM mAb on captured hPD-1-mFc, 25C
Procedure: Next, inhibition studies for anti-PD-L1 monoclonal antibodies expressed with human Fc were performed on Biacore 3000 instrument. […] The entire experiment was performed at 25° C. in HBST running buffer (0.01 M HEPES pH7.4, 0.15M NaCl, 3 mM EDTA, 0.05% v/v Surfactant P20). The real-time binding responses were monitored during the entire course of the experiment and the binding response at the end of every step was recorded.

T4 sequence (chain, as listed by the source limits assumed): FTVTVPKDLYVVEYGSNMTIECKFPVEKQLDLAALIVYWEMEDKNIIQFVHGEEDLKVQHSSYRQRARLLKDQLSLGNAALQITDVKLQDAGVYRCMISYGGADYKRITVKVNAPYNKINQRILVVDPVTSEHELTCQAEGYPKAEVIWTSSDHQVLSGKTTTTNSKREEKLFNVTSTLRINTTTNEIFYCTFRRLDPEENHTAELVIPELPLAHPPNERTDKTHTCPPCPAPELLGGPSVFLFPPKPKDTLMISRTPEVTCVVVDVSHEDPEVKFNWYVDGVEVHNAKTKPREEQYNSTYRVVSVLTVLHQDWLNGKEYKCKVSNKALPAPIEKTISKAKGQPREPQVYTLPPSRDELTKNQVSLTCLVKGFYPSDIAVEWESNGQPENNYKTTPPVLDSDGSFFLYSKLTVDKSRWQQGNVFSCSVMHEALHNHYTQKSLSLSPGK

Q: How did the “% Blocking” value turn out when B1 was run?
A: Its value is 84%.

Q: With B2 as the binder, how does the “% Blocking” value read?
A: Its value is -422%.

Q: B3 was tested. Which “% Blocking” value did it give?
A: Its value is -428%.

Q: Which “% Blocking” value does the source give for B4 here?
A: The value was -448%.

Q: With B5 as the binder, how does the “% Blocking” value read?
A: Its value is 91%.

Q: How did the “% Blocking” value turn out when B6 was run?
A: The value was -193%.

Source: patent US20210380702A1 (Regeneron, published 2021)
